The assay has as its target Flag tagged HIV-1 Env with the 7aa Erbin PDZ domain binding sequence fused to its C-terminus (HIV-1). As to the kind of experiment: cell-based or functional assay.

1 substance from patent US20260200991A1 can be followed below.

Substance Ebola VP40-Erbin PDZ fusion protein returned a normalized VLP ELISA (Env display on VLPs) (fold decrease) of 2.
